Sequences and labels used below:
T1: His10 − MBP − PTPN21(19–308) (UniProt Q16825 19-308)
T1 construct: Tagged form used in native gels and ITC; also called PTPN21_(FERM); FERM domain of PTPN21; source: E. coli BL21(DE3) RIL, purified (Ni-NTA, size-exclusion chromatography); not shown: His10, N-terminal, kept; MBP, N-terminal, kept
T1 sequence (looked up): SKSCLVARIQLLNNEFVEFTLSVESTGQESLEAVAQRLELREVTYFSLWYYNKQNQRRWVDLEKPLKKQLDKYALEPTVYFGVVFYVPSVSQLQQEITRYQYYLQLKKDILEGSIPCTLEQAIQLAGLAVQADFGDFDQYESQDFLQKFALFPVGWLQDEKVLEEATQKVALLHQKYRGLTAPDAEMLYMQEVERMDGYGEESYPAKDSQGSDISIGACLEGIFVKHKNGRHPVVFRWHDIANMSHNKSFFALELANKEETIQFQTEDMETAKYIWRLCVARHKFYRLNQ

T2: His10 − MBP−Hook3(553–718) (UniProt Q86VS8 553-718)
T2 construct: source: E. coli BL21(DE3) RIL, purified (Ni-NTA, size-exclusion chromatography); not shown: His10, N-terminal, kept; MBP, N-terminal, kept
T2 sequence (looked up): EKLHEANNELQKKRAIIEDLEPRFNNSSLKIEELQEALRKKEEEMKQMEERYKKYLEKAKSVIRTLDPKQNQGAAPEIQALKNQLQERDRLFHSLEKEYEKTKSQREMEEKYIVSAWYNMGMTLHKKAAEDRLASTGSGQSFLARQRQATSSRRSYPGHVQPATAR

T3: full-length KIF1C(WT)−Flag−EGFP (UniProt O43896 1-1103)
T3 sequence (looked up): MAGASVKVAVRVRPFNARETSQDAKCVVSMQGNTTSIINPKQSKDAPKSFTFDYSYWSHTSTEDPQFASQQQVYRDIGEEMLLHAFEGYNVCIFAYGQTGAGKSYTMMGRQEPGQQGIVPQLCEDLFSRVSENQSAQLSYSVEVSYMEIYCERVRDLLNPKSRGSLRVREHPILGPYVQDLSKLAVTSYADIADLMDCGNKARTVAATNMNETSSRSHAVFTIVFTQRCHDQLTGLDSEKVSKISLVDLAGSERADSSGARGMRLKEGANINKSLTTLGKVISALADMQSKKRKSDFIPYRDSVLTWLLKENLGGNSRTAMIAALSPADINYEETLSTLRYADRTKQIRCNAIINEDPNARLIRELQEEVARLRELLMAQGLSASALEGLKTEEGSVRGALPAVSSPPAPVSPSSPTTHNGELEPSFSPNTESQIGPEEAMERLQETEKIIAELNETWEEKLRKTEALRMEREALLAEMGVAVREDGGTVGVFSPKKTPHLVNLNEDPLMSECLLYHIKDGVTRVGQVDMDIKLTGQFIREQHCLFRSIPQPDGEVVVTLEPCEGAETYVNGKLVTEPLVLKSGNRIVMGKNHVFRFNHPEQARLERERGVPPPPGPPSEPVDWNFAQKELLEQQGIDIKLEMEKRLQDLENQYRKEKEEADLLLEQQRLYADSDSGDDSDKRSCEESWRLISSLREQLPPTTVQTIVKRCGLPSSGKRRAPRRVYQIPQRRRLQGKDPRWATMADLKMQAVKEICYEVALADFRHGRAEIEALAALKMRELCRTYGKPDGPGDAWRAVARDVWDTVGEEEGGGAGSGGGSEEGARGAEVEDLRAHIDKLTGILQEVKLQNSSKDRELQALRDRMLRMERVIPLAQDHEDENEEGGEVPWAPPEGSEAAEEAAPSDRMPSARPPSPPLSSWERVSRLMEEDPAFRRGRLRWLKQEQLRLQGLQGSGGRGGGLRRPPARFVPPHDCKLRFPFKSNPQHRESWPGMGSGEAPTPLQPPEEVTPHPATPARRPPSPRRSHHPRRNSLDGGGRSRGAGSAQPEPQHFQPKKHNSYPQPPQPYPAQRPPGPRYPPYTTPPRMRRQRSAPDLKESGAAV

B1: His10 − MBP−Hook3(553–624) (domain or fragment, UniProt Q86VS8 553-624, looked up)
chain: EKLHEANNELQKKRAIIEDLEPRFNNSSLKIEELQEALRKKEEEMKQMEERYKKYLEKAKSVIRTLDPKQNQ
notes: Tagged form used in native gels and ITC; also called Hook3CC3; source: E. coli BL21(DE3) RIL, purified (Ni-NTA, size-exclusion chromatography); not shown: His10, N-terminal, kept; MBP, N-terminal, kept
B2: Hook3(553–624) (domain or fragment, UniProt Q86VS8 553-624, looked up)
chain: B1 chain
notes: Untagged form used in the SEC replacement analysis and in the crystals; parallel coiled-coil homodimer in both crystal structures; A selenomethionine-substituted form was also made for the apo structure; also called Hook3CC3; source: E. coli BL21(DE3) RIL, purified (Ni-NTA, size-exclusion chromatography, tag removed with TEV protease); not shown: His10, N-terminal, cleaved; MBP, N-terminal, …
B3: His10 − MBP − KIF1C(714–809) (domain or fragment, UniProt O43896 714-809, looked up)
chain: PSSGKRRAPRRVYQIPQRRRLQGKDPRWATMADLKMQAVKEICYEVALADFRHGRAEIEALAALKMRELCRTYGKPDGPGDAWRAVARDVWDTVGE
notes: Tag kept, as named in the legends and methods of the native gel, ITC and SEC experiments; also called KIF1C_(H3BD); source: E. coli BL21(DE3) RIL, purified (Ni-NTA, size-exclusion chromatography); not shown: His10, N-terminal, kept; MBP, N-terminal, kept
B4: full-length Hook3(WT)−Myc−FuRed (natural protein, UniProt Q86VS8 1-718, looked up)
chain: MFSVESLERAELCESLLTWIQTFNVDAPCQTVEDLTNGVVMAQVLQKIDPAYFDENWLNRIKTEVGDNWRLKISNLKKILKGILDYNHEILGQQINDFTLPDVNLIGEHSDAAELGRMLQLILGCAVNCEQKQEYIQAIMMMEESVQHVVMTAIQELMSKESPVSAGNDAYVDLDRQLKKTTEELNEALSAKEEIAQRCHELDMQVAALQEEKSSLLAENQVLMERLNQSDSIEDPNSPAGRRHLQLQTQLEQLQEETFRLEAAKDDYRIRCEELEKEISELRQQNDELTTLADEAQSLKDEIDVLRHSSDKVSKLEGQVESYKKKLEDLGDLRRQVKLLEEKNTMYMQNTVSLEEELRKANAARSQLETYKRQVVELQNRLSEESKKADKLDFEYKRLKEKVDSLQKEKDRLRTERDSLKETIEELRCVQAQEGQLTTQGLMPLGSQESSDSLAAEIVTPEIREKLIRLQHENKMLKLNQEGSDNEKIALLQSLLDDANLRKNELETENRLVNQRLLEVQSQVEELQKSLQDQGSKAEDSVLLKKKLEEHLEKLHEANNELQKKRAIIEDLEPRFNNSSLKIEELQEALRKKEEEMKQMEERYKKYLEKAKSVIRTLDPKQNQGAAPEIQALKNQLQERDRLFHSLEKEYEKTKSQREMEEKYIVSAWYNMGMTLHKKAAEDRLASTGSGQSFLARQRQATSSRRSYPGHVQPATAR

Data set [1] concerns the target B3. Description: ITC; 0.8 mM His10−MBP−Hook3(553–624) or His10−MBP−PTPN21(19–308) titrated into 0.04 mM His10−MBP−KIF1C(714–809); 25 °C; 50 mM Tris-HCl pH 7.5, 500 mM NaCl, 3 mM β-mercaptoethanol; MicroCal VP-ITC. The settings on record: both partners purified. For orientation: In ITC the heat of successive injections is recorded.
Data set [2] concerns the molecule itself. Description: crystal structure; Hook3(553–624) − KIF1C(714–809) complex, 30 mg/mL, sitting drop at 4 °C, 0.1 M sodium citrate/citric acid pH 5.5, 20% PEG 4000, 20% isopropanol; 3.0 Å.
For data set [3], the target named is T1, His10 − MBP − PTPN21(19–308). Description: ITC; 0.8 mM His10−MBP−Hook3(553–624) or His10−MBP−PTPN21(19–308) titrated into 0.04 mM His10−MBP−KIF1C(714–809); 25 °C; 50 mM Tris-HCl pH 7.5, 500 mM NaCl, 3 mM β-mercaptoethanol; MicroCal VP-ITC. Particulars: both partners purified.
The target of data set [4] is T2, His10 − MBP−Hook3(553–718). Put plainly: native gel or EMSA; His10−MBP-tagged recombinant proteins alone or mixed (10 µM; molar ratio 1:1), incubated 16 h at 4 °C, 10% native gel, 120 V for 2 h on ice, Coomassie staining. The settings on record: both partners purified. A general note: A gel shift assay detects complexes by their altered migration in electrophoresis.

Data set [5] deals with T3, full-length KIF1C(WT)−Flag−EGFP. Description: cell-based or functional assay.

In the case of B1, the dissociation constant (Kd) in data set [1] amounted to 1.58 µM. Take B2: in data set [2], the “stoichiometry N” value is 2. In data set [3], B3 returned a Kd of 5.15 µM. Moreover, the binding result in data set [4] is listed as “binds”. With B4, in data set [5], the “tail/cytoplasm ratio of Hook3−Myc−FuRed upon co-expression in RPE1 cells, 16 h post transfection” value came out at 1.3 tail/cytoplasm ratio and the “tail/cytoplasm ratio of KIF1C−Flag−EGFP upon co-expression in RPE1 cells, 16 h post transfection” value came to 3.6 tail/cytoplasm ratio.

Broadly, the Kd is the equilibrium constant for the complex coming apart. Low values mean tighter binding, high ones weaker binding. In general, stoichiometry N refers to a count of units in the complex or per binding partner.

Values taken from paper PMC12152161, “Molecular basis for assembly and activation of the Hook3 − KIF1C complex-dependent transport machinery” (EMBO Reports, 2025).
